Assay results: PMC3176292, “Mutations in Protein-Binding Hot-Spots on the Hub Protein Smad3 Differentially Affect Its Protein Interactions and Smad3-Regulated Gene Expression” (PLoS ONE, 2011)
Where a chain is given by its changes, count along the chain named.

T1: Flag-SkiW274E, full length (UniProt P12755 1-728, W274E)
T1 construct: plasmid pCMV5b-Flag-SkiW274E (from K. Luo); also called SkiW274E FL; SKI274E; source: HEK-293, transfected, in lysate
T1 sequence (looked up): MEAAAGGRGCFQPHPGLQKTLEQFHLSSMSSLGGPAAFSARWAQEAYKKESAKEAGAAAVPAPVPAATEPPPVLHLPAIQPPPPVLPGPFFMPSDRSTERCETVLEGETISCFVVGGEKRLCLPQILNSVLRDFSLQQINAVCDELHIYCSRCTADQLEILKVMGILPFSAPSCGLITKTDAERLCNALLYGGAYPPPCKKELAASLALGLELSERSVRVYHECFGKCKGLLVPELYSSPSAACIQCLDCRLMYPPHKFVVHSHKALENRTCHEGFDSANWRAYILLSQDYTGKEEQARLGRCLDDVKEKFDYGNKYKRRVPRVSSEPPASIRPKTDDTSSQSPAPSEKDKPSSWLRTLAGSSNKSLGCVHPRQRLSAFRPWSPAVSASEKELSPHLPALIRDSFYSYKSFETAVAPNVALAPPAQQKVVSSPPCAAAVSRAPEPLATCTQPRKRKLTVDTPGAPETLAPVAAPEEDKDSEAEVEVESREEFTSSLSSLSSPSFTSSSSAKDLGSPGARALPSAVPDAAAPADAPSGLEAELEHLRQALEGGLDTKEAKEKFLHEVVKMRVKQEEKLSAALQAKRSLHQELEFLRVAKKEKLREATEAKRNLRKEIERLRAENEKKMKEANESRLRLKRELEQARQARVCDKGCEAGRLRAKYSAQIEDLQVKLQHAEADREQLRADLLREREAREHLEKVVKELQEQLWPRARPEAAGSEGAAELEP

T2: SIP1 Smad-binding domain (amino acids 315–487) on the 3xFlag-thioredoxin scaffold (UniProt Q9R0G7 315-487)
T2 construct: SIP1, amino acids 315–487; amplified from pACT2-SIP1-315-487 (from D. Huylebroeck), which I recall as a mouse clone; cloned into the RsrII site of pCI-3xFLAG-Trx; also called Sip1 315–487; TrxSIP1; source: HEK-293, transfected, in lysate
T2 sequence (looked up): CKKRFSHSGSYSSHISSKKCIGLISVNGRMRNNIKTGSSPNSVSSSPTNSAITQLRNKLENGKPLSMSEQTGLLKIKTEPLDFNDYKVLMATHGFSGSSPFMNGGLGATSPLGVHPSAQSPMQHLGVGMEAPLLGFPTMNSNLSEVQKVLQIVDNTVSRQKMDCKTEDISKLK

B1: Renilla luciferase-Smad3 D408H (natural protein, UniProt P84022 1-425, looked up)
chain: MSSILPFTPPIVKRLLGWKKGEQNGQEEKWCEKAVKSLVKKLKKTGQLDELEKAITTQNVNTKCITIPRSLDGRLQVSHRKGLPHVIYCRLWRWPDLHSHHELRAMELCEFAFNMKKDEVCVNPYHYQRVETPVLPPVLVPRHTEIPAEFPPLDDYSHSIPENTNFPAGIEPQSNIPETPPPGYLSEDGETSDHQMNHSMDAGSPNLSPNPMSPAHNNLDLQPVTYCEPAFWCSISYYELNQRVGETFHASQPSMTVDGFTDPSNSERFCLGLLSNVNRNAAVELTRRHIGRGVRLYYIGGEVFAECLSDSAIFVQSPNCNQRYGWHPATVCKIPPGCNLKIFNNQEFAALLAQSVNQGFEAVYQLTRMCTIRMSFVKGWGAEYRRQTVTSTPCWIELHLNGPLQWLHKVLTQMGSPSIRCSSVS
notes: Smad3; source: HEK-293, transfected together with constitutively active Alk5, in lysate
B2: Renilla luciferase-Smad3 R243A (natural protein, UniProt P84022 1-425, looked up)
chain: B1 chain with R243A, H408D
notes: as for B1
B3: Renilla luciferase-Smad3 R268A (natural protein, UniProt P84022 1-425, looked up)
chain: B1 chain with R268A, H408D
notes: as for B1
B4: Renilla luciferase-Smad3 R292A (natural protein, UniProt P84022 1-425, looked up)
chain: B1 chain with R292A, H408D
notes: as for B1
B5: Renilla luciferase-Smad3 Y238A (natural protein, UniProt P84022 1-425, looked up)
chain: B1 chain with Y238A, H408D
notes: as for B1
B6: Renilla luciferase-Smad3 Y384A (natural protein, UniProt P84022 1-425, looked up)
chain: B1 chain with Y384A, H408D
notes: as for B1

Tests used:
Experiment in all cases: co-IP; LUMIER: Renilla luciferase-Smad3 and Flag-tagged partner co-expressed with constitutively active Alk5 in HEK-293; Flag protein captured from cleared lysate (TNE: 10 mM Tris-HCl pH 7.8, 150 mM NaCl, 1 mM EDTA, 1% Igepal CA-630) on anti-Flag 96-well plates, 2 h at 4 °C; co-precipitated Renilla luciferase activity, TrxGA background subtracted, percent of wild-type Smad3
Conditions in all cases: partners not purified
[1] = target: T3, Flag-Smad3, full length (UniProt P84022 1-425)
T3 construct: Smad3; plasmid pCMV5-Flag-Smad3 (from J. Massagué); bait for Smad3-Smad3 association; also called Smad3 FL; source: HEK-293, transfected together with constitutively active Alk5, in lysate

[2] = target: T1, Flag-SkiW274E, full length
[3] = target: T2, SIP1 Smad-binding domain (amino acids …)

| Binder | percent binding relative to wild-type Smad3 [1] | percent binding relative to wild-type Smad3 [2] | percent binding relative to wild-type Smad3 [3] |
| --- | --- | --- | --- |
| B1 | 30% | 31% | 41% |
| B2 | 46% | 72% | 28% |
| B3 | 27% | 62% | 13% |
| B4 | 49% | 59% | 32% |
| B5 | 24% | 44% | 15% |
| B6 | 28% | 53% | 41% |
